Reference: paper PMC7431413, “Selective inhibition of STAT3 signaling using monobodies targeting the coiled-coil and N-terminal domains” (Nature Communications, 2020)
Where no end group is shown, it is not given here. [ ]: non-standard residue; d: D form. pY = N[C@@H](Cc1ccc(OP(=O)(O)O)cc1)C(=O)O

Target: T1, recombinant core fragment (CF) of STAT3 (human, UniProt P40763 127-722)
T1 construct: STAT3, human, core fragment (CC, DBD and SH2 domains), a.a; For the crystal the methods say 'TEV cleaved-MS3-6 and STAT3-CF'; it is not clear whether the tags of STAT3-CF were cut too; also called STAT3-CF; source: E. coli BL21 (DE3), pHBT vector, purified (Ni-NTA, SEC)
Assay: fluorescence polarisation; fluorescent gp130 pY-peptide and recombinant STAT3-CF (Supplementary Fig. 3a); TBS (50 mM Tris pH 7.5, 150 mM NaCl)
Conditions: both partners purified

T1 sequence (P40763 127-722): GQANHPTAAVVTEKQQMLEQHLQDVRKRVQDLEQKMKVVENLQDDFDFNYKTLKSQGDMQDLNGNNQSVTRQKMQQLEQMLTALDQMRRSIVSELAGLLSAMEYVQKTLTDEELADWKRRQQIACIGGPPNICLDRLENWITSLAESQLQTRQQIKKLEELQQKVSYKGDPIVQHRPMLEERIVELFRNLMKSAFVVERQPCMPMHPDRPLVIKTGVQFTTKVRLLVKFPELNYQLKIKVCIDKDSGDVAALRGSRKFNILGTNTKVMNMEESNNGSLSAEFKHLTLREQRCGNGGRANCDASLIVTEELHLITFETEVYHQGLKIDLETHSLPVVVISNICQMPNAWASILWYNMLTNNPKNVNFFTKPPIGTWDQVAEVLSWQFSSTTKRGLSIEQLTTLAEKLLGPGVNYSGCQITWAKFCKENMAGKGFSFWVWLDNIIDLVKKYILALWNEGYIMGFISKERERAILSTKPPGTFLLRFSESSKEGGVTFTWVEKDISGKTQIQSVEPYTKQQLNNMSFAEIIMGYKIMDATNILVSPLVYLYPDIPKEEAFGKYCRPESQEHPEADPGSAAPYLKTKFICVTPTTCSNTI

B1: fluorescent pY-peptide encompassing the pY905 docking site of gp130 (peptide)
peptide: GMPKS[pY]LPQTVR-NH2
modifications: not fully specified (N-terminus)
notes: gp130, cytosolic tail around the Y905 docking site; also called gp130 pY-peptide; phospho-gp130 peptide; source: synthetic peptide
With B1 the Kd was 930 nM.
